assay: yeast display, Sf9 membrane polyspecificity reagent, FACS + sequencing; frameworks hold sequencing errors
Procedure, shortened: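 Genes from sorted yeast were amplified by colony PCR, read by MiSeq 2 × 250 sequencing and filtered on CDR length. These cells carried a synthetic nanobody library in Saccharomyces cerevisiae BJ5465 and were sorted by FACS into low and high (top ~1%) gates on anti-HA and streptavidin fluorescence. Polyreactivity is labelled according to the gate of origin.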

Row | Sequence | polyreactivity (PSR sort gate)
1 | QVQQQESGGGLVQAGGSLRLSCAASGSIFDGFNMGWYRQAPGKEREFVAAISYGASTYYADIVKGRFTDSRDNAKYSVYLQMIRLKPEDTAVYYCAVYDELYHVLVYWGRGTQVTVSS | low polyreactivity
2 | QVQQQESGGGLVQAGGSLRLSCAASGTIFQLTVMGRYRQAPGKERELVASIDYGGNTNYADSVKGRFTISRDNAKNTVYLQMNSLKPEDTAVYYCAASSDSWTTHPYWGQGTQVTVSS | low polyreactivity
3 | QVQQQESGGGLVQAGGSLRLSCAASGTIFQLTVMRRYRQAPGKERELVASIDYGGNTNYADSVKGRFTISRDNAKNTVYLQMNSLKPEDTAVYYCAASSDSWTTHPYWGQGTQVTVSS | low polyreactivity
4 | QVQQQESGGGLVQAGGSLRLSCAASGTILYSLGMGWYRQAPGKRREFVASITWGTTTNYAESVKGRFTISRDNAKNTVYPQMNSLKPEDTAVYYCNKSSTGWTSTYDYWGQGTQVTVSS | low polyreactivity
5 | QVQQQESGGGLVQAVGSLRLSCAASGTIIQLTVMGRYRQAPGKERELVASIDYGGNTNYADSVKGRFTISRDNAKNTVYLHMNSLKPEDTAVYYCAKESRPAEGDSGYDYWGQGTLVTVSS | low polyreactivity
6 | QVQREESGGGLVQAGGSLRLSCAASGNIFYQYAMGWYRLAPGKEREFVAAISISGTSTYADSVKGRFTISRDNAKNTVYLQMNSLKPVDTAVYWGQGTQVTVSS | low polyreactivity
7 | QVQREESVGGLVQAGVSLRLSCAASGLTLAPYAMGAYRQAPGKERELVAAITFSGGSTYYADSVKGRFTISRDNAKNTVYLQMNSLKPEDTAVYYCARDTWAYKYVYPYYSWGQGTQVTVSS | low polyreactivity
8 | QVQRLESAGGLVQAGGSLRLSCAASGFIFSYYAMGWYRQAPGKERELVAAIDGSGGSTYYADSVKGRFTISRDNAKNTVYLQKNSLKPEDTAVYYCNTLIYIQGLGYDYGGQGTQVTVSS | high polyreactivity
9 | QVQRVESAGGLVQAGGSLRLSCAASGFIFSWYAMGWYRQAPGKERELVAAIRWSSGRTYYADSVKGRFTISRDNAKNTVYVQMNSLKPEDTAVYYCNARSDIHNSYDYWGQGTQVTVSS | high polyreactivity
10 | QVQRVESGGGIDQAGGSLRLSCAASGLTFSIYAIGWYRQAPGKERDLVDAISWSGGSTYYADSVKGRFTISRDNAKNTVYLQMISLKPEVTAVYYCAARVYRPWWRYDYWGQGTQVSVSS | high polyreactivity
11 | QVQRVESGGGIVQAGGSLRLSCAASRRIFPYYALGWYRQSPGKERELVAAISQSDGSTYYADSVKGRFTISRDNAKNTVYLQMNSLKPEDTAVYYWAKRQASYTKHRKGRGDYWGQGTQVTVSS | low polyreactivity
12 | QVQRVESGGGIVQAGGSLRLSSAASGSIYLYHAMGWYRPERGKERQLVAAIRSGGITYYADSVKGRFTISRDNAKNTVYLQMYSLKPEDTADYYCAAKFYWKGTPKKYYYWGQGTQETVSS | high polyreactivity
13 | QVQRVESGGGLDQAGGSLRLSCAAYGRTFGLNAMGWYRQAPGKESELVAVISFGDGGKYYADSVKGRFTISRDNAKHTVYLQMNSLKPEDTAVYYCATEYQSTSVWGGHLVINPYDYWGQGTQVTVSS | low polyreactivity
14 | QVQRVESGGGLFQAGGSLRLSCAASGFIFASYTMGWYRQAPGKERELVAAISRAGSTYYADSVKGRFTITRDNAKNTVYFQMNSLKPEDTAVYYCNAVSWRTSRYDYWGQGTQVTVSS | high polyreactivity
15 | QVQRVESGGGLFQAGRSLRLSCAASGFIFSTYAMGWYRQAPGKERELVAAISSGGSTYYADSVKGRFTISRDNAKNTVYLQMNSLKPEDTAVDYCAADLGAYWFSYYYWGQGTQLTVSS | high polyreactivity
16 | QVQRVESGGGLVQAGASLRLSCAASGGIFYRNAMLWYRQAPGKERELVAAISRRAGSTYYADSVKGRFTISRDNAKNTVYLQMNSLKPEDTAVYYCARRVVNVGDADREYWGQGTQVTVSS | high polyreactivity
17 | QVQRVESGGGLVQAGASLRLSCSASGSTFYSNAMGWYRQAPGKERELVAAISGSGGRTYYADSVKGRFTISRDNEKKTVYLQMNSLKPEETAVYFCAVERTRSMGYWGQGTQVTVSS | high polyreactivity
18 | QVQRVESGGGLVQAGGRLRISCAASGRTFRGNDMGWYRQAPGKERELVPTITRNGGSTRYADSVKGRFTISRDNAKNTVYLQMNSLQPEDTAVYYCAAREKYTPALEVEYWGQGTQVTVSS | high polyreactivity
19 | QVQRVESGGGLVQAGGRLRLSFAASGFIFYAMGWYRQAPGKERELVAAITLSDGTTYYADSVKGRFTISRDNAKNTVYLQLNSLKPEDTAVYYCAAEYSVPYRGWDGYEYWGQGTQVTVSS | low polyreactivity
20 | QVQRVESGGGLVQAGGSLLLSCAASGRIFYRSAMGWYRQAPGKESELVASISWSGGSTYYADSVKGRFTISRDNAKNTVYLQMNSLKPEDTAVYYCAARSYRYSYRYRAFDYWGQGTQVTVSS | high polyreactivity
21 | QVQRVESGGGLVQAGGSLRISCAASGSITWYYSMGWYRQAPGKERELFAAISDSGGDKYYADSVKGRFTISRDNAKNTVYLQMNSLKPEDTAVYYCNARYSWYGTFGGDYWGQDTQVTVSS | low polyreactivity

Row | Sequence | polyreactivity (PSR sort gate)
22 | QVQRVESGGGLVQAGGSLRLSCAASASIFASYAMGWYRQAPGKERELVASISRGGGTTYADSVKGRFTISRDNAKNTVYLQMNSLKPDDTAVYYCAARKVIRYRPYGYWGQGTQVTVSS | high polyreactivity
23 | QVQRVESGGGLVQAGGSLRLSCAASASTIVIKAMGCYRQAPGKARELVADLDYRGGSTNYADSVKGRFTISRDNAKNTVYLQMNSLKPEDTAVYYFNKRYVIRRRGYDYWGQGTQVTVSS | low polyreactivity
24 | QVQRVESGGGLVQAGGSLRLSCAASGFTIGSYAMGWYRQAPGKERELVAAITRRGGSTYYADSEKGRYTISRDNAKNTVSLQMNSLKPEDTAVYYCGKRSRDYVSSFRTSHANDYWGQGTQVTVSS | high polyreactivity
25 | QVQRVESGGGLVQAGGSLRLSCAASGFTLLPNAMGWYRQAPGKETELVAAITASGGRTYYADSVKGRFTISRDNAKNTVYLQMNSLKPEDTAVYSCNADWQDDLAGYDVDYWGQGTQVTGSS | low polyreactivity
26 | QVQRVESGGGLVQAGGSLRLSCAASGFTSLIYAMGWYRQAPGKESELVATITWGGGSTYADSVKGRFTISRDNAKNTVYLQMNSLKPEDTAVFYCIADIYDSWDYATVYSDRYDYWGQGTQVTVSS | low polyreactivity
27 | QVQRVESGGGLVQAGGSLRLSCAASGGTFAFNTMGWYRQAPGIERELVADISSGGSTNYADSVKGRFTISRDNAKNTVYLQMNRLKPVDSAVYYGNGGWDILYLQGDLDYWGQGTQVTVSS | low polyreactivity
28 | QVQRVESGGGLVQAGGSLRLSCAASGITFKSYTMGWYRPAPGKERELVAANTASGGTTRYADSVKGRFTISRDNAKKTVYLQMNSLKPEDTAVYYCNALPFRYGKRRGYWGQGTQVTVSS | low polyreactivity
29 | QVQRVESGGGLVQAGGSLRLSCAASGITFYPYTMGWYRQAPGKQRELVAAISSSGGSTNYADSVKGRFTISRDNAKNSDYLQMISLKPDDSAVYYCAKRYAGNASSDGDSWGQGTQVTVSS | low polyreactivity
30 | QVQRVESGGGLVQAGGSLRLSCAASGLTFSYNAMGWYRQAPGKERELVAAITVSGGRTYYADSVKGRFTISRDNAKNTVYLQMNSLKPEDTAVYYCNADYDEGYYGYLRYDYDYWGQGTQVTVSS | high polyreactivity
31 | QVQRVESGGGLVQAGGSLRLSCAASGNNVMGWYRQAPGKERELVAAISWSGTSTYADSVKGRFTISRDNAKNTVYIQMNSLKPEDTAVYYCAAEQQGRKYRASRRYDYWGQGTQVTVSS | low polyreactivity
32 | QVQRVESGGGLVQAGGSLRLSCAASGRIFALYARGWYRQAPGKEREWVAAISWSGGSTFYADSVKGRFTSSRDTAKNTVYLQMTSLKPEEPAVYYCNKDHLVYPSEFYYWGQGTQVTVSS | low polyreactivity
33 | QVQRVESGGGLVQAGGSLRLSCAASGRIFEYYAMGWSRQAPGKERELVAAINTGGNTYYADSVKGRFTISRDNAKNTVYLQMNSLKPEDTAVYYCATYPIWYGGYLSGTDYDYWGQGTQVTVSS | low polyreactivity
34 | QVQRVESGGGLVQAGGSLRLSCAASGRIFGGYAMGWYRQAPGKERELVAGITIGGRTNYADSVKGRFTISRDNAKNTVYLQMNSLKPEDTAVYYCNTDLTGLDAEYDYWGQGTQLTVSS | low polyreactivity
35 | QVQRVESGGGLVQAGGSLRLSCAASGRIFGYNAMGWSRPAPGKERELVASISRDGDRTYYADSVKGRVTISRDNAKNTVYLQMNSLKPEDTAVDYCATRQYRYGYLYDYWAQGTQVTVSS | high polyreactivity
36 | QVQRVESGGGLVQAGGSLRLSCAASGRIFPSNAMGWYRQAPGKERELVAGINTRSGRTYYADSVKGRFTNSRDNAKKTDYLQLNSLKPEDTAVYYCAAARAWPLNYWYVPYDYWGQGTQVTVSS | high polyreactivity
37 | QVQRVESGGGLVQAGGSLRLSCAASGRNFTRYAMGWYRQAPGKERELVASISRRGGSTYYADSVKGRFTISRDNAKNTVYLQMNSLKPEDTAVYYCNALVIARNIEMDYWGQGTQVTVSS | high polyreactivity
38 | QVQRVESGGGLVQAGGSLRLSCAASGRTFAPYAMGWSRQAPGKARELVAGITYGGSRTYYADSVKGRFTISRDNAKNTVYLQMNSLKPEDPAVYYCNARSYPYQIRYVTYGAGYYYWGQGTQVTVSS | high polyreactivity
39 | QVQRVESGGGLVQAGGSLRLSCAASGRTFAYYVMGWYRQAPGKERELVAAISWSAGSTYYADSVKGRFTISRDNAKNTVYLQMNSLKPEDTAVYYCAADYRFRYEYWGQGTQVTVSS | low polyreactivity
40 | QVQRVESGGGLVQAGGSLRLSCAASGRTFDSYAMGWYRPAPGKERELVAVITRGVRTYYADSVKGRFTISRDNAKNTVYLQMNSLKPEDTAVYYCAKERYNANYDTSLYDYWGQGTQVTVSS | low polyreactivity
41 | QVQRVESGGGLVQAGGSLRLSCAASGRTFWTNAMGWYRQAPGTERELVAAISGSGGSTYFADSVKGRFTISRDNAKNTVYLQMNSLKPEDTAVYYCAAYSRFRYDYWGQGTQVTVSS | high polyreactivity
